Test results taken from patent publication US20250136718A1 (MABWELL THERAPEUTICS, published 2025).

T1: matriptase (ST14) over-expressed in HEK293T cells (human, UniProt Q9Y5Y6 1-855)
T1 construct: also called matriptase-1
T1 sequence: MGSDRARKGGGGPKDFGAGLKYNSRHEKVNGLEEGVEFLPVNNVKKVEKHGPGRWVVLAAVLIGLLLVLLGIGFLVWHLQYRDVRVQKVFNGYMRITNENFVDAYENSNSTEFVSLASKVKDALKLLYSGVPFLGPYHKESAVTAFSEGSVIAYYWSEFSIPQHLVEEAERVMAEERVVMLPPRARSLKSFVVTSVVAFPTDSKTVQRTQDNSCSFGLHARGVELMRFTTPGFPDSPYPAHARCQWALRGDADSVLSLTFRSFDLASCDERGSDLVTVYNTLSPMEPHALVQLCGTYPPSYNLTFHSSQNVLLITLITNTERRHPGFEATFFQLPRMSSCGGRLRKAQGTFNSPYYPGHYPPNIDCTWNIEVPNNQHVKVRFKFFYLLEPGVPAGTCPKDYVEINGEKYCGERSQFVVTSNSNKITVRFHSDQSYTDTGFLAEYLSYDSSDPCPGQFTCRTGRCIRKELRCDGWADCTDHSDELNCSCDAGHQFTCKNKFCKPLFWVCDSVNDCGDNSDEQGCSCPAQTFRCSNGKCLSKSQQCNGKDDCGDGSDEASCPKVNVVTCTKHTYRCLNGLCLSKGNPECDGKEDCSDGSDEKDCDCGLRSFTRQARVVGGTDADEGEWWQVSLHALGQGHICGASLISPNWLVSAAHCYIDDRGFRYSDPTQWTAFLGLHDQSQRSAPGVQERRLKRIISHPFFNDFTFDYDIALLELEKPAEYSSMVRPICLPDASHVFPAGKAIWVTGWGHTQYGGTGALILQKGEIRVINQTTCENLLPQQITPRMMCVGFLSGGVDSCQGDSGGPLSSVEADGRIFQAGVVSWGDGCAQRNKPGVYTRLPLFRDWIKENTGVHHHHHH

T2: matriptase-3 (TMPRSS7) over-expressed in HEK293T cells (human, UniProt Q7RTY8 1-843)
T2 sequence: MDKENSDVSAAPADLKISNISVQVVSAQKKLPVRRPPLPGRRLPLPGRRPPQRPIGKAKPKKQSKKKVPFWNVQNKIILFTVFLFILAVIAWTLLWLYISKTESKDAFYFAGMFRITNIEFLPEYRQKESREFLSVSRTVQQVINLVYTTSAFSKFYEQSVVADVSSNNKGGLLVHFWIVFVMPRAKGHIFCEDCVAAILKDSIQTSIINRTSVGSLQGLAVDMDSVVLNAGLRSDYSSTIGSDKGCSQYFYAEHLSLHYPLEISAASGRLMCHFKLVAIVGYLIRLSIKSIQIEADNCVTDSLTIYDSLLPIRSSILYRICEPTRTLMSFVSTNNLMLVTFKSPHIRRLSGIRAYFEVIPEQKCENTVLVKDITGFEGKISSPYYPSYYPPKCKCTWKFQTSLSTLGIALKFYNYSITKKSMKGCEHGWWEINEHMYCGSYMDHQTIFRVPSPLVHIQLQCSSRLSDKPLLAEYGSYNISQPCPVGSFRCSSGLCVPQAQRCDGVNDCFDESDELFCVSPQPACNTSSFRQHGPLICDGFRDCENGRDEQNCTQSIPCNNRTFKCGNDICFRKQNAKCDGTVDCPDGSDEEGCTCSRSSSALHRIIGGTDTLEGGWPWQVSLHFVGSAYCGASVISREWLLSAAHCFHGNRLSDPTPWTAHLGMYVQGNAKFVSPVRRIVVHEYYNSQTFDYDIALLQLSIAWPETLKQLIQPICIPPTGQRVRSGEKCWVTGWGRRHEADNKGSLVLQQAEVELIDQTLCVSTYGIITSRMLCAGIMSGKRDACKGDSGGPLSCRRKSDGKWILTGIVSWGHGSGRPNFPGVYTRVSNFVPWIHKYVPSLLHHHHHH

B1: MWTx-002 anti-TMPRSS6 monoclonal antibody (antibody, mouse IgG2b, kappa, V domains shown)
VH: EVQLQQSGAELVKPGASVKLSCTASGFNIKDYYIHWVKERTEQGLEWFGRIDPEDGESEYAPKFQGKATLTADTSSNTAYLQLSSLTSEDTAVYYCTRGDSMMVTYFDYWGQGTTLTVSS
VL: DIVMTQSHKFMSTSVGDRVSITCKASQDVSTAVAWYQQKPGQSPKLLIYWAFTRHTGVPDRFTSTGSGTDYALTISSVQAEDLALYYCQQHYRSPWTFGGGTKLEIKR
notes: Mouse monoclonal antibody from hybridoma (ATCC PTA-126760)
B2: humanized anti-TMPRSS6 antibody variant hzMWTx-001 Var (antibody, human IgG1, kappa, N297A, V domains shown)
VH: EVQLVQSGAEVKKPGASVKVSCKASGYTFTSYWITWVRQAPGQRLEWIGNIYPGSGSTYYNEKFKSKATITRDTSSRTAYMELSSLRSEDTAVYYCAPYDADYAMDYWGQGTLVTVSS
VL: DIQMTQSPSSLSASVGDRVTITCKASQDISNYLSWFQQKPGKAPKLLIYRANRLVEGVPSRFSGSGSGTDFTLTISSLQPEDFATYFCLQYDEFPLTFGGGTKVEIKR
notes: Human IgG1 / kappa
B3: MWTx-001 anti-TMPRSS6 monoclonal antibody (antibody, mouse IgG2a, kappa, V domains shown)
VH: QVQLQQPGAELAKPGASVKMSCKASGYTFTSYWITWVKQRPGQDLEWIGNIYPGSGSTYYNEKFKSKATLTVDTSSRTAYMQLSSLTSADSAVYYCAPYDSDYAMDYWGQGTSVTVSS
VL: DIKMTQSPSSMYASLGERVTITCKASQDINNYLSWFQQKPGKSPKTLIYRANRLVDGVPSRVSGSGSGQDYSLTISSLEYEDVGIYFCLQYDEFPLTFGAGTKLELKR
notes: Mouse monoclonal antibody from hybridoma (ATCC PTA-126759)
B4: humanized anti-TMPRSS6 antibody variant hzMWTx-003 Var (antibody, human IgG1, kappa, L234A L235A, V domains shown)
VH: QVQLVQSGAEVKKPGASVKVSCKASGFNIEDYYMHWVRQAPGQRLEWMGRIDPEDAETTYSPKFQGRVTIIPDTSANTAYMELSSLRSEDTAVYYCARSIYLDPMDYWGQGTLVTVSS
VL: DIQMTQSPKSLSASVGDRVTITCRASQDVTTALAWYQQKPGQSPKLLIYWATTRHSGVPSRFSGSGSGTDFTLTISSLQPEDFATYYCQQHYSTPYTFGQGTKLEIKR
notes: Human IgG1 / kappa
B5: MWTx-003 anti-TMPRSS6 monoclonal antibody (antibody, mouse IgG2b, kappa, V domains shown)
VH: EVQLQQSGAELVKPGASVKLSCTASGFNIEDYYIHWVKERTEQGLEWIGRIDPEDGETTYAPQFQGKATIIPDTSSNTAYMQLSSLTSEDAAVYYCARSIYLDPMDYWGQGTSVTVSS
VL: DIVMTQSHKFMSTSVGDRVSITCKASQDVTTAVAWYQQKPGQSPKILIYWATTRHTGVPDRFTGSISGTTYILTISSVQAEDLALYYCQQHYSTPYTFGGGTKLEIKR
notes: Mouse monoclonal antibody from hybridoma (ATCC PTA-126761); The recombinant version r4K12B has the same HC and LC; also called r4K12B; recombinant MWTx-003
B6: humanized anti-TMPRSS6 antibody variant hzMWTx-002 Var (antibody, human IgG1, kappa, N297A, V domains shown)
VH: EVQLVQSGAEVKKPGASVKVSCKASGFNIKDYYIHWVRQATGQGLEWMGRIDPEDAESEYAPKFQGRVTITADTSTDTAYMELSSLRSEDTAVYYCTRGDSMMVTYFDYWGQGTLVTVSS
VL: DIQMTQSPSSLSASVGDRVTITCKASQDVSTAVAWYQQKPGKAPKLLIYWAFTRHTGVPSRFSGSGSGTDYALTISSLQPEDFATYYCQQHYRSPWTFGGGTKVEIKR
notes: Human IgG1 / kappa

The binders below were run against T1, matriptase (ST14) over-expressed in … (assay: FACS on permeabilized HEK293T cells over-expressing matriptase (ST14)).
Excerpt: (§1) To determine if anti-TMPRSS6 antibodies bind to homologous matriptases, HEK293T cells over-expressing matriptase (ST14) (SEQ ID NO: 100) (FIGS. 5B, 5E, 5H, 5K, 5N, 5Q), and HEK293T cells over-expressing matriptase-3 (TMPRSS7) (SEQ ID NO: 101) (FIGS. 5C, 5F, 5I, 5L, 5O, 5R) were collected (generated in house). HEK293T cells stably expressing human TMPRSS6 (matriptase-2) (SEQ ID NO: 97) (generated by LakePharma Inc as described above, FIGS. 5A, 5D, 5G, 5J, 5M, 5P) were used as a positive control and HEK293T cells (FIGS. 5A-5R) were used as a negative control (as described above). Cells were blocked and permeabilized with dPBS+3% BSA+0.1% Tween-20 before incubation with various anti-TMPRSS6 antibodies diluted in dPBS+3% BSA+0.1% Tween-20. Cells were incubated with anti-TMPRSS6 antibodies and their humanized variants at a concentration of roughly 1 μg/ml for 1 hr. After incubation, cells were washed with dPBS and incubated with goat anti-mouse IgG conjugated with AlexaFluor-488 (Invitrogen, FIGS. 5A-5I) or goat anti-human IgG conjugated with Allophycocyanin (APC) (Jackson Immuno Research, FIGS. 5J-5R) as a 2° antibody. At last, cells were washed with dPBS and re-suspended with dPBS+1 mM EDTA, and then subjected to FACS analysis using a NOVOCYTE® Flow Cytometer. Bound antibody was determined by excitation at 488 nm and measurement of emission (FITC-A) at 530 nm (FIGS. 5A-5I) or by excitation at 640 nm and measurement of emission (APC-A) at 675 nm (FIGS. 5J-5R). Results for these assays are shown in histogram plots in FIGS. 5A-5R.

binding result	Binder
no binding (tested: roughly 1 µg/ml)	B1
no binding (tested: roughly 1 µg/ml)	B2
no binding (tested: roughly 1 µg/ml)	B3
no binding (tested: roughly 1 µg/ml)	B4
no binding (tested: roughly 1 µg/ml)	B5
no binding (tested: roughly 1 µg/ml)	B6

The binders below were run against T2, matriptase-3 (TMPRSS7) over-expressed … (assay: FACS on permeabilized HEK293T cells over-expressing matriptase-3 (TMPRSS7)).
Excerpt: as §1

binding result	Binder
no binding (tested: roughly 1 µg/ml)	B1
no binding (tested: roughly 1 µg/ml)	B2
no binding (tested: roughly 1 µg/ml)	B3
no binding (tested: roughly 1 µg/ml)	B4
no binding (tested: roughly 1 µg/ml)	B5
no binding (tested: roughly 1 µg/ml)	B6
